The chains are these.
T1: alcalase (trade name "Alcalase 2.5L", Novozymes) (UniProt P00780)
T1 sequence (looked up): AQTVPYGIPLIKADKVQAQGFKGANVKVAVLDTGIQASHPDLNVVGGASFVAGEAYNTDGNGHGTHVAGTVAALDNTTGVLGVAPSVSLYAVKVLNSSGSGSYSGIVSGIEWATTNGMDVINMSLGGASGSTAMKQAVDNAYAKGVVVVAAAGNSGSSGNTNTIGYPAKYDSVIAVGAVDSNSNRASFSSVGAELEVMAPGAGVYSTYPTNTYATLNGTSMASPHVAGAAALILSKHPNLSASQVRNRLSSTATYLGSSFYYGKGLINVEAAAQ

B1: proteinaceous protease inhibitor of SEQ ID NO:26 (protein)
chain: TDTGDHHNQKTDWPELVGKSVEEAPKVILQDKSEAPIAVLPVGTLVTAEAAAARVRLFVDSLDKIAQVPAVG
B2: proteinaceous protease inhibitor of SEQ ID NO:30 (protein)
chain: MSSVEKKPEGVNTGAGDRHNLKTAWPELVGKSVEEAKKVILQDKSEAQIIVLPVGTIVTMEYRIDRVRLFVDKLDNIAQVPRVG
B3: proteinaceous protease inhibitor of SEQ ID NO:31 (protein)
chain: B2 chain with A24E, I50A
B4: proteinaceous protease inhibitor of SEQ ID NO:34 (protein)
chain: B2 chain with A24E, I64A
B5: proteinaceous protease inhibitor of SEQ ID NO:32 (protein)
chain: B2 chain with A24E, Y62A
B6: proteinaceous protease inhibitor of SEQ ID NO:33 (protein)
chain: B2 chain with A24E, R63A
B7: proteinaceous protease inhibitor of SEQ ID NO:41 (protein)
chain: B2 chain with A24E
B8: proteinaceous protease inhibitor of SEQ ID NO:36 (protein)
chain: B2 chain with A24E, R82A
B9: proteinaceous protease inhibitor of SEQ ID NO:35 (protein)
chain: B2 chain with A24E, D65A
B10: proteinaceous protease inhibitor of SEQ ID NO:40 (protein)
chain: TECGGGGGAKTSWPEVVGLSVEEAKKVILKDKPDADIVVLPVGSVVTADYRPNRVRIFVDIVAQTPHVG
B11: proteinaceous protease inhibitor of SEQ ID NO:3 (protein)
chain: TDTGDHHNQKTAWPELVGKSVEEAKKVILQDKSEAQIVVLPVGTIVTMEYRIDRVRLFVDSLDKIAQVPRVG
B12: proteinaceous protease inhibitor of SEQ ID NO:24 (protein)
chain: B11 chain with A12E, M48G, R70A
B13: proteinaceous protease inhibitor of SEQ ID NO:25 (protein)
chain: B11 chain with A12E, V38A, R70A
B14: proteinaceous protease inhibitor of SEQ ID NO:22 (protein)
chain: B11 chain with A12E, V38A, R51A, I52A
B15: proteinaceous protease inhibitor of SEQ ID NO:29 (protein)
chain: B11 chain with A12E, R70N
B16: proteinaceous protease inhibitor of SEQ ID NO:18 (protein)
chain: B11 chain with A12E, D53A
B17: proteinaceous protease inhibitor of SEQ ID NO:6 (protein)
chain: B11 chain with A12E, V38I
B18: proteinaceous protease inhibitor of SEQ ID NO:19 (protein)
chain: B11 chain with A12E, R70A
B19: proteinaceous protease inhibitor of SEQ ID NO:20 (protein)
chain: B11 chain with A12E, R70G
B20: proteinaceous protease inhibitor (BC) of SEQ ID NO:1, wheat-derived subtilisin/chymotrypsin inhibitor (protein)
chain: B11 chain with A12E
B21: proteinaceous protease inhibitor of SEQ ID NO:21 (protein)
chain: B11 chain with A12E, R70K
B22: proteinaceous protease inhibitor of SEQ ID NO:4 (protein)
chain: B11 chain with A12E, V38A
B23: proteinaceous protease inhibitor of SEQ ID NO:28 (protein)
chain: B11 chain with A12E, Y50G
B24: proteinaceous protease inhibitor of SEQ ID NO:27 (protein)
chain: B11 chain with A12K
B25: proteinaceous protease inhibitor of SEQ ID NO:5 (protein)
chain: B11 chain with A12E, V38L
B26: proteinaceous protease inhibitor of SEQ ID NO:23 (protein)
chain: B11 chain with A12E, V38A, I52A, D53A

Changes are numbered by the printed parent chain.

The target of this test is T1, alcalase (trade name "Alcalase 2.5L", Novozymes). The test can be described thus: cell-based or functional assay.
B1 yielded a Protease activity upon dilution (%) immediately after preparation of 85% and a Remaining activity (%) immediately after preparation of 19%.
Molecule B2 registered a Protease activity upon dilution (%) immediately after preparation of 80% and a Remaining activity (%) immediately after preparation of 15%.
For B3, in that order: 75% and 2%.
For B4, in that order: 75% and 1%.
Regarding B5, the Protease activity upon dilution (%) immediately after preparation turned out to be 73% and the Remaining activity (%) immediately after preparation is 15%.
B6 registered a Protease activity upon dilution (%) immediately after preparation of 18% and a Remaining activity (%) immediately after preparation of 1%.
Turning to B7, the Protease activity upon dilution (%) immediately after preparation turned out to be 8% and the Remaining activity (%) immediately after preparation came out at 0%.
B8 yielded a Protease activity upon dilution (%) immediately after preparation of 81% and a Remaining activity (%) immediately after preparation of 1%.
The molecule B9 returned a Protease activity upon dilution (%) immediately after preparation of 80% and a Remaining activity (%) immediately after preparation of 2%.
For B10, in that order: 100% and 53%.
B11 displayed a Protease activity upon dilution (%) immediately after preparation of 89% and a Remaining activity (%) immediately after preparation of 7%.
For B12, in that order: 82% and 20%.
With B13, the Protease activity upon dilution (%) immediately after preparation was determined as 80% and the Remaining activity (%) immediately after preparation worked out at 1%.
As to B14, the Protease activity upon dilution (%) immediately after preparation amounted to 82% and the Remaining activity (%) immediately after preparation was 1%.
Consider B15, for which the Protease activity upon dilution (%) immediately after preparation is 95% and the Remaining activity (%) immediately after preparation was 19%.
As for B16, the Protease activity upon dilution (%) immediately after preparation was found to be 85% and the Remaining activity (%) immediately after preparation came to 3%.
On the same counts, the results for B17 are 10% and 0%.
B18 came in with a Protease activity upon dilution (%) immediately after preparation of 85% and a Remaining activity (%) immediately after preparation of 2%.
For B19, in that order: 100% and 10%.
On the same counts, the results for B20 are 10% and 0%.
As to B21, the Protease activity upon dilution (%) immediately after preparation turned out to be 100% and the Remaining activity (%) immediately after preparation was found to be 13%.
B22 gave a Protease activity upon dilution (%) immediately after preparation of 80% and a Remaining activity (%) immediately after preparation of 2%.
On the same counts, the results for B23 are 90% and 18%.
Molecule B24 displayed a Protease activity upon dilution (%) immediately after preparation of 98% and a Remaining activity (%) immediately after preparation of 16%.
On the same counts, the results for B25 are 100% and 11%.
On the same counts, the results for B26 are 82% and 1%.

The record behind these values is US20140357543A1.
